The assay addresses T1, FLAG-tagged Cereblon (CRBN) (human, UniProt Q96SW2-2 1-441).
T1 construct: also called FLAG-CRBN; Wnt-modulated CRBN; source: HEK293T, transfected (pcDNA3.1(+)), cells treated with PBS or Wnt3a, immunopurified from lysate on beads
Description: pull-down; FLAG-CRBN immunopurified from PBS- or Wnt3a-treated (4 h) HEK293T cells, held on BSA-blocked beads; GST-CK1α preincubated with DMSO or pyrvinium at 4 °C for 10 min, then incubated with the beads in binding buffer at 4 °C for 1 h; one 5-min wash; elution in Laemmli buffer, immunoblot. To be noted: both partners purified.

T1 sequence (Q96SW2 other isoform, or with tags, fused parts or gaps): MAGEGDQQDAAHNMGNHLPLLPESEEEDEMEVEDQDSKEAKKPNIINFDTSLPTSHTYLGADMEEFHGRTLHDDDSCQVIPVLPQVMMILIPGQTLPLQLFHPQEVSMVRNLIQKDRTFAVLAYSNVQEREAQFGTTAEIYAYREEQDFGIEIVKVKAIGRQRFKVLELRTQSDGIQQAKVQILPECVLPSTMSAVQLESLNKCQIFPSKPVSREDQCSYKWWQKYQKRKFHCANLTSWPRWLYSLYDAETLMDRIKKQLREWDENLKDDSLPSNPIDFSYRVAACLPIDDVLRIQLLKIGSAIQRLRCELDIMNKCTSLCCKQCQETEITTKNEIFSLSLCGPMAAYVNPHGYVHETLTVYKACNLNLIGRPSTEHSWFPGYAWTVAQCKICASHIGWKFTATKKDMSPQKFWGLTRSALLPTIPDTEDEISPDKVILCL

B1: Recombinant human glutathione-S-transferase (GST)-CK1α protein (natural protein, UniProt P48729-1 1-337, looked up)
chain: MASSSGSKAEFIVGGKYKLVRKIGSGSFGDIYLAINITNGEEVAVKLESQKARHPQLLYESKLYKILQGGVGIPHIRWYGQEKDYNVLVMDLLGPSLEDLFNFCSRRFTMKTVLMLADQMISRIEYVHTKNFIHRDIKPDNFLMGIGRHCNKLFLIDFGLAKKYRDNRTRQHIPYREDKNLTGTARYASINAHLGIEQSRRDDMESLGYVLMYFNRTSLPWQGLKAATKKQKYEKISEKKMSTPVEVLCKGFPAEFAMYLNYCRGLRFEEAPDYMYLRQLFRILFRTLNHQYDYTFDWTMLKQKAAQQAASSSGQGQQAQTPTGKQTDKTKSNMKGF
notes: Preincubated with DMSO or pyrvinium before it was added to the FLAG-CRBN beads; also called GST-tagged CK1α; recombinant CK1α; source: Sf9 insect cells, purified (GenScript)
Regarding B1, the binding result is “binds”.

Source of the values: PMC9352546, “The Casein kinase 1α agonist pyrvinium attenuates Wnt-mediated CK1α degradation via interaction with the E3 ubiquitin ligase component Cereblon” (The Journal of Biological Chemistry, 2022).
